In patent US20130315910A1 (Xencor, published 2013):

What was measured:
Test in all cases: SPR
[1] = biological target: T1, human FcγRIIb receptor protein (R&D Systems) (human, UniProt P31994 46-217)
T1 construct: Bought protein injected over captured antibody in Biacore; also called CD32b
T1 sequence (looked up): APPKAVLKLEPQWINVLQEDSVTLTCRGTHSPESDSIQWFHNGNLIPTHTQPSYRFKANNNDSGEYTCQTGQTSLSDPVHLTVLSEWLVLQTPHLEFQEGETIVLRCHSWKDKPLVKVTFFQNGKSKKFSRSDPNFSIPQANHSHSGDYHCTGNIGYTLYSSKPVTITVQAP

mFcγRIIb = biological target: T2, mFcγRIIb (Mus musculus, UniProt P08101)
T2 construct: extracellular region, C-terminal His- and GST-tag; also called mouse FcγRII
T2 sequence (receptor extracellular region, looked up): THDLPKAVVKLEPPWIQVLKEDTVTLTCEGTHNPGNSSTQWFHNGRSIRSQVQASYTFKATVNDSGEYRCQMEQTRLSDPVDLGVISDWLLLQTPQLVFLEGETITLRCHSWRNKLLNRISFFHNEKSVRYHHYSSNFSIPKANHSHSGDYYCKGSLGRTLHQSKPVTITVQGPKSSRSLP

cynoFcγRIIb = biological target: T3, cynoFcγRIIb (Macaca fascicularis, UniProt A0A140HDP4)
T3 construct: extracellular region, C-terminal His- and GST-tag; also called cynomolgus monkey FcγRIIb
T3 sequence (receptor extracellular region): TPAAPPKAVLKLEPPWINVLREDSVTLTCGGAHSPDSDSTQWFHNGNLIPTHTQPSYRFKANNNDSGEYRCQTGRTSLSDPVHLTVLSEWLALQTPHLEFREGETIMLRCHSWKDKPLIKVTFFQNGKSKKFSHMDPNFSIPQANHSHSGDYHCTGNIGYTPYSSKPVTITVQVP

Row | Binder | Fold vs WT IgG1 [1] [fold] | Kd [1] [nM] | Fold vs WT IgG1 (Kd) (mFcγRIIb) [fold] | Fold vs WT IgG1 (Kd) (cynoFcγRIIb) [fold]
1 | S239D/H268D/L328F (antibody, human IgG1, kappa, HuAM4G7 anti-CD19 IgG1 (m1) with these Fc substitutions, EU index; copies: 2 + 2) heavy: EVQLVESGGGLVKPGGSLKLSCAASGYTFTSYVMHWVRQAPGKGLEWIGYINPYNDGTKYNEKFQGRVTISSDKSISTAYMELSSLRSEDTAMYYCARGTYYYGTRVFDYWGQGTLVTVSSASTKGPSVFPLAPSSKSTSGGTAALGCLVKDYFPEPVTVSWNSGALTSGVHTFPAVLQSSGLYSLSSVVTVPSSSLGTQTYICNVNHKPSNTKVDKKVEPKSCDKTHTCPPCPAPELLGGPDVFLFPPKPKDTLMISRTPEVTCVVVDVSDEDPEVKFNWYVDGVEVHNAKTKPREEQYNSTYRVVSVLTVLHQDWLNGKEYKCKVSNKAFPAPIEKTISKAKGQPREPQVYTLPPSREEMTKNQVSLTCLVKGFYPSDIAVEWESNGQPENNYKTTPPVLDSDGSFFLYSKLTVDKSRWQQGNVFSCSVMHEALHNHYTQKSLSLSPGK light: DIVMTQSPATLSLSPGERATLSCRSSKSLQNVNGNTYLYWFQQKPGQSPQLLIYRMSNLNSGVPDRFSGSGSGTEFTLTISSLEPEDFAVYYCMQHLEYPITFGAGTKLEIKRTVAAPSVFIFPPSDEQLKSGTASVVCLLNNFYPREAKVQWKVDNALQSGNSQESVTEQDSKDSTYSLSSTLTLSKADYEKHKVYACEVTHQGLSSPVTKSFNRGEC | 8.79 | 167 | 6.01 | 3.17
2 | S239D/H268D/L328Y/I332E (antibody, human IgG1, kappa, HuAM4G7 anti-CD19 IgG1 (m1) with these Fc substitutions, EU index; copies: 2 + 2) heavy: EVQLVESGGGLVKPGGSLKLSCAASGYTFTSYVMHWVRQAPGKGLEWIGYINPYNDGTKYNEKFQGRVTISSDKSISTAYMELSSLRSEDTAMYYCARGTYYYGTRVFDYWGQGTLVTVSSASTKGPSVFPLAPSSKSTSGGTAALGCLVKDYFPEPVTVSWNSGALTSGVHTFPAVLQSSGLYSLSSVVTVPSSSLGTQTYICNVNHKPSNTKVDKKVEPKSCDKTHTCPPCPAPELLGGPDVFLFPPKPKDTLMISRTPEVTCVVVDVSDEDPEVKFNWYVDGVEVHNAKTKPREEQYNSTYRVVSVLTVLHQDWLNGKEYKCKVSNKAYPAPEEKTISKAKGQPREPQVYTLPPSREEMTKNQVSLTCLVKGFYPSDIAVEWESNGQPENNYKTTPPVLDSDGSFFLYSKLTVDKSRWQQGNVFSCSVMHEALHNHYTQKSLSLSPGK light: DIVMTQSPATLSLSPGERATLSCRSSKSLQNVNGNTYLYWFQQKPGQSPQLLIYRMSNLNSGVPDRFSGSGSGTEFTLTISSLEPEDFAVYYCMQHLEYPITFGAGTKLEIKRTVAAPSVFIFPPSDEQLKSGTASVVCLLNNFYPREAKVQWKVDNALQSGNSQESVTEQDSKDSTYSLSSTLTLSKADYEKHKVYACEVTHQGLSSPVTKSFNRGEC | 54.1 | 27.1 | 3.04 | 9.1
3 | S239D/H268D/L328F/I332E (antibody, human IgG1, kappa, HuAM4G7 anti-CD19 IgG1 (m1) with these Fc substitutions, EU index; copies: 2 + 2) heavy: EVQLVESGGGLVKPGGSLKLSCAASGYTFTSYVMHWVRQAPGKGLEWIGYINPYNDGTKYNEKFQGRVTISSDKSISTAYMELSSLRSEDTAMYYCARGTYYYGTRVFDYWGQGTLVTVSSASTKGPSVFPLAPSSKSTSGGTAALGCLVKDYFPEPVTVSWNSGALTSGVHTFPAVLQSSGLYSLSSVVTVPSSSLGTQTYICNVNHKPSNTKVDKKVEPKSCDKTHTCPPCPAPELLGGPDVFLFPPKPKDTLMISRTPEVTCVVVDVSDEDPEVKFNWYVDGVEVHNAKTKPREEQYNSTYRVVSVLTVLHQDWLNGKEYKCKVSNKAFPAPEEKTISKAKGQPREPQVYTLPPSREEMTKNQVSLTCLVKGFYPSDIAVEWESNGQPENNYKTTPPVLDSDGSFFLYSKLTVDKSRWQQGNVFSCSVMHEALHNHYTQKSLSLSPGK light: DIVMTQSPATLSLSPGERATLSCRSSKSLQNVNGNTYLYWFQQKPGQSPQLLIYRMSNLNSGVPDRFSGSGSGTEFTLTISSLEPEDFAVYYCMQHLEYPITFGAGTKLEIKRTVAAPSVFIFPPSDEQLKSGTASVVCLLNNFYPREAKVQWKVDNALQSGNSQESVTEQDSKDSTYSLSSTLTLSKADYEKHKVYACEVTHQGLSSPVTKSFNRGEC | 53.2 | 27.6 | 2.59 | 27.6
4 | S239D/H268D/L328W/I332E (antibody, human IgG1, kappa, HuAM4G7 anti-CD19 IgG1 (m1) with these Fc substitutions, EU index; copies: 2 + 2) heavy: EVQLVESGGGLVKPGGSLKLSCAASGYTFTSYVMHWVRQAPGKGLEWIGYINPYNDGTKYNEKFQGRVTISSDKSISTAYMELSSLRSEDTAMYYCARGTYYYGTRVFDYWGQGTLVTVSSASTKGPSVFPLAPSSKSTSGGTAALGCLVKDYFPEPVTVSWNSGALTSGVHTFPAVLQSSGLYSLSSVVTVPSSSLGTQTYICNVNHKPSNTKVDKKVEPKSCDKTHTCPPCPAPELLGGPDVFLFPPKPKDTLMISRTPEVTCVVVDVSDEDPEVKFNWYVDGVEVHNAKTKPREEQYNSTYRVVSVLTVLHQDWLNGKEYKCKVSNKAWPAPEEKTISKAKGQPREPQVYTLPPSREEMTKNQVSLTCLVKGFYPSDIAVEWESNGQPENNYKTTPPVLDSDGSFFLYSKLTVDKSRWQQGNVFSCSVMHEALHNHYTQKSLSLSPGK light: DIVMTQSPATLSLSPGERATLSCRSSKSLQNVNGNTYLYWFQQKPGQSPQLLIYRMSNLNSGVPDRFSGSGSGTEFTLTISSLEPEDFAVYYCMQHLEYPITFGAGTKLEIKRTVAAPSVFIFPPSDEQLKSGTASVVCLLNNFYPREAKVQWKVDNALQSGNSQESVTEQDSKDSTYSLSSTLTLSKADYEKHKVYACEVTHQGLSSPVTKSFNRGEC | 27.8 | 52.7 | 4.81 | 4.55
5 | S239D/H268D/L328W (antibody, human IgG1, kappa, HuAM4G7 anti-CD19 IgG1 (m1) with these Fc substitutions, EU index; copies: 2 + 2) heavy: EVQLVESGGGLVKPGGSLKLSCAASGYTFTSYVMHWVRQAPGKGLEWIGYINPYNDGTKYNEKFQGRVTISSDKSISTAYMELSSLRSEDTAMYYCARGTYYYGTRVFDYWGQGTLVTVSSASTKGPSVFPLAPSSKSTSGGTAALGCLVKDYFPEPVTVSWNSGALTSGVHTFPAVLQSSGLYSLSSVVTVPSSSLGTQTYICNVNHKPSNTKVDKKVEPKSCDKTHTCPPCPAPELLGGPDVFLFPPKPKDTLMISRTPEVTCVVVDVSDEDPEVKFNWYVDGVEVHNAKTKPREEQYNSTYRVVSVLTVLHQDWLNGKEYKCKVSNKAWPAPIEKTISKAKGQPREPQVYTLPPSREEMTKNQVSLTCLVKGFYPSDIAVEWESNGQPENNYKTTPPVLDSDGSFFLYSKLTVDKSRWQQGNVFSCSVMHEALHNHYTQKSLSLSPGK light: DIVMTQSPATLSLSPGERATLSCRSSKSLQNVNGNTYLYWFQQKPGQSPQLLIYRMSNLNSGVPDRFSGSGSGTEFTLTISSLEPEDFAVYYCMQHLEYPITFGAGTKLEIKRTVAAPSVFIFPPSDEQLKSGTASVVCLLNNFYPREAKVQWKVDNALQSGNSQESVTEQDSKDSTYSLSSTLTLSKADYEKHKVYACEVTHQGLSSPVTKSFNRGEC | 51.1 | 28.7 | 47.8 | 23.7
6 | S239D/H268D/L328Y (antibody, human IgG1, kappa, HuAM4G7 anti-CD19 IgG1 (m1) with these Fc substitutions, EU index; copies: 2 + 2) heavy: EVQLVESGGGLVKPGGSLKLSCAASGYTFTSYVMHWVRQAPGKGLEWIGYINPYNDGTKYNEKFQGRVTISSDKSISTAYMELSSLRSEDTAMYYCARGTYYYGTRVFDYWGQGTLVTVSSASTKGPSVFPLAPSSKSTSGGTAALGCLVKDYFPEPVTVSWNSGALTSGVHTFPAVLQSSGLYSLSSVVTVPSSSLGTQTYICNVNHKPSNTKVDKKVEPKSCDKTHTCPPCPAPELLGGPDVFLFPPKPKDTLMISRTPEVTCVVVDVSDEDPEVKFNWYVDGVEVHNAKTKPREEQYNSTYRVVSVLTVLHQDWLNGKEYKCKVSNKAYPAPIEKTISKAKGQPREPQVYTLPPSREEMTKNQVSLTCLVKGFYPSDIAVEWESNGQPENNYKTTPPVLDSDGSFFLYSKLTVDKSRWQQGNVFSCSVMHEALHNHYTQKSLSLSPGK light: DIVMTQSPATLSLSPGERATLSCRSSKSLQNVNGNTYLYWFQQKPGQSPQLLIYRMSNLNSGVPDRFSGSGSGTEFTLTISSLEPEDFAVYYCMQHLEYPITFGAGTKLEIKRTVAAPSVFIFPPSDEQLKSGTASVVCLLNNFYPREAKVQWKVDNALQSGNSQESVTEQDSKDSTYSLSSTLTLSKADYEKHKVYACEVTHQGLSSPVTKSFNRGEC | 24.4 | 60.1 | 48.6 | 22.2
7 | S239D/H268E/L328Y (antibody, human IgG1, kappa, HuAM4G7 anti-CD19 IgG1 (m1) with these Fc substitutions, EU index; copies: 2 + 2) heavy: EVQLVESGGGLVKPGGSLKLSCAASGYTFTSYVMHWVRQAPGKGLEWIGYINPYNDGTKYNEKFQGRVTISSDKSISTAYMELSSLRSEDTAMYYCARGTYYYGTRVFDYWGQGTLVTVSSASTKGPSVFPLAPSSKSTSGGTAALGCLVKDYFPEPVTVSWNSGALTSGVHTFPAVLQSSGLYSLSSVVTVPSSSLGTQTYICNVNHKPSNTKVDKKVEPKSCDKTHTCPPCPAPELLGGPDVFLFPPKPKDTLMISRTPEVTCVVVDVSEEDPEVKFNWYVDGVEVHNAKTKPREEQYNSTYRVVSVLTVLHQDWLNGKEYKCKVSNKAYPAPIEKTISKAKGQPREPQVYTLPPSREEMTKNQVSLTCLVKGFYPSDIAVEWESNGQPENNYKTTPPVLDSDGSFFLYSKLTVDKSRWQQGNVFSCSVMHEALHNHYTQKSLSLSPGK light: DIVMTQSPATLSLSPGERATLSCRSSKSLQNVNGNTYLYWFQQKPGQSPQLLIYRMSNLNSGVPDRFSGSGSGTEFTLTISSLEPEDFAVYYCMQHLEYPITFGAGTKLEIKRTVAAPSVFIFPPSDEQLKSGTASVVCLLNNFYPREAKVQWKVDNALQSGNSQESVTEQDSKDSTYSLSSTLTLSKADYEKHKVYACEVTHQGLSSPVTKSFNRGEC | 21.7 | 67.7 | 26.5 | 5.87
